According to publication doi:10.1101/2021.04.06.438592, “Structural basis for how sMAC is packaged for clearance” (bioRxiv, 2021):
“And” between values parts separate entries of the source, which are not always exact repeats. Equal values may be shown once.

B1: complement C9 (natural protein)
chain: not shown
modifications: N-linked glycan (NAG) on Asn394
notes: One to three copies stand in sMAC, in two conformations; also called C9_(1); C9_(2); source: bought: Complement Technologies (as part of purified sMAC)

Columns and labels:
Settings in all cases: both partners purified
[1] = target: T1, complement C8 (C8α/C8β/C8γ) (human, UniProt P07357 31-584; P07358 55-591; P07360 21-202); assay: cross-linking; XL-MS of purified sMAC (0.5 mg/ml) with 1 mM DSS or 15 mM DMTMM, 30 min at RT, triplicates; LC-MS/MS, pLink
T1 construct: complement component C8 alpha chain, human; complement component C8 beta chain, human; complement component C8 gamma chain, human; Kept as one molecule; source: bought: Complement Technologies (as part of purified sMAC); copies: 1 + 1 + 1
T1 sequence (P07357 31-584, chain 1 of 3): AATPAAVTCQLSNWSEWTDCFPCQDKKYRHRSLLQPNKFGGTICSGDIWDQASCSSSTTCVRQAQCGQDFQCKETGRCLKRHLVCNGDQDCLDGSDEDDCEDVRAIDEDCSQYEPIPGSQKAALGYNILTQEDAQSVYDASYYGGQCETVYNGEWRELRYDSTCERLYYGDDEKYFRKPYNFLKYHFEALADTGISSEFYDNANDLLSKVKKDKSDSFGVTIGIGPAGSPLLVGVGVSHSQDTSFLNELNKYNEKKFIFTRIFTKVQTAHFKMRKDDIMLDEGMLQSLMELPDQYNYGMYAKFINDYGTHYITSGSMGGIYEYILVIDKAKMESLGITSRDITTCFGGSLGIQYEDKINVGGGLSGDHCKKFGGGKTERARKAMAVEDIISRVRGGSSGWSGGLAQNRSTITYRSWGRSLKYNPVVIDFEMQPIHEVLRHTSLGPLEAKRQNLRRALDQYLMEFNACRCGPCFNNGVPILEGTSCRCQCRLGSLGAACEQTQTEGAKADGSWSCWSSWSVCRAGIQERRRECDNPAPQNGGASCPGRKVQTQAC
T1 sequence (P07358 55-591, chain 2 of 3): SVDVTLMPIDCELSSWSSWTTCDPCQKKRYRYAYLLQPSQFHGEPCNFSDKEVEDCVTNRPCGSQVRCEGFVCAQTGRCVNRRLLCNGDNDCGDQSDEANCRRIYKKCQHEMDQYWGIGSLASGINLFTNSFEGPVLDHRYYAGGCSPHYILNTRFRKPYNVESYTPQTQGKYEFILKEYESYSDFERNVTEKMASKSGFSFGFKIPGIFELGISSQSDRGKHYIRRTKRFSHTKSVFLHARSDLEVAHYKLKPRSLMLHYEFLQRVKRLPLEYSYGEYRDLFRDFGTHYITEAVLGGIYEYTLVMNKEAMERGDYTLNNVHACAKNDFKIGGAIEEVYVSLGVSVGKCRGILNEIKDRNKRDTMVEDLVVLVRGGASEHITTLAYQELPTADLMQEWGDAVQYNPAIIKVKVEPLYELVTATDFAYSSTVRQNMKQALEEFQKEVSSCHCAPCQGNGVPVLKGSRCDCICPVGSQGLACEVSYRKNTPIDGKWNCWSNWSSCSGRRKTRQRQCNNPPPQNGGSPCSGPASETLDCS
T1 sequence (P07360 21-202, chain 3 of 3): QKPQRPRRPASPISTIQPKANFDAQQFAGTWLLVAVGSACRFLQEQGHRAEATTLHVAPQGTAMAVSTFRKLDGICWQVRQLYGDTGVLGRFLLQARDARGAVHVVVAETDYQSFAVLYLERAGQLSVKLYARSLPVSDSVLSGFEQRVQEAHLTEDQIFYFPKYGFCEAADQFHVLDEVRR

complement C9 = target: B1; assay: as above
Chain of complement C9 (P02748 22-559): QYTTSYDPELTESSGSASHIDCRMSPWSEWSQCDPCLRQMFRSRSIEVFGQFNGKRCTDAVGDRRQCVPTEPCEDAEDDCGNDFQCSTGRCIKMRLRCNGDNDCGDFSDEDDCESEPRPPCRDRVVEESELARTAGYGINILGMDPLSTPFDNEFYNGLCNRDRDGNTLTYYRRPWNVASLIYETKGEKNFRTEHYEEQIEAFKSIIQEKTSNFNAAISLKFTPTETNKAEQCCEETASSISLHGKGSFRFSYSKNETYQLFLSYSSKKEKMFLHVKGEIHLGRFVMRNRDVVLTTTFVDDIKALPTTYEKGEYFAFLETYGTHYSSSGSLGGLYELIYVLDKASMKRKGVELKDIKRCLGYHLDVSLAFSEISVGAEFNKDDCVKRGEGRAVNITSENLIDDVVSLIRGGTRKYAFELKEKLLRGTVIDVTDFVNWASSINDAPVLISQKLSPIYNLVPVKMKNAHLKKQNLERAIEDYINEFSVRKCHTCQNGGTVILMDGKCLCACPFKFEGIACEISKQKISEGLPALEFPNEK

[2] = target: T1, complement C8 (C8α/C8β/C8γ); assay: cryo-EM structure; purified sMAC (Complement Technologies) at 0.065 mg/ml in 120 mM NaCl, 10 mM Hepes pH7.4; 3D classes with 1, 2 or 3 C9; focused refinements after density subtraction

Binder	binding result [1]	binding result (complement C9)	stoichiometry N [2]
clusterin (natural protein, human, highly glycosylated | highly glycosylated, Secreted clusterin, about 80 kDa; multiple copies in sMAC; Not modelled in the deposited structures; the clusterin core model (residues 40-124 and 256-427) is a prediction; also called apolipoprotein J; source: bought: Complement Technologies (as part of purified sMAC)) chain 1: DQTVSDNELQEMSNQGSKYVNKEIQNAVNGVKQIKTLIEKTNEERKTLLSNLEEAKKKKEDALNETRESETKLKELPGVCNETMMALWEECKPCLKQTCMKFYARVCRSGSGLVGRQLEEFLNQSSPFYFWMNGDRIDSLLENDRQQTHMLDVMQDHFSRASSIIDELFQDRFFTREPQDTYHYLPFSLPHRRPHFFFPKSRIVR chain 2: SLMPFSPYEPLNFHAMFQPFLEMIHEAQQAMDIHFHSPAFQHPPTEFIREGDDDRTVCREIRHNSTGCLRMKDQCDKCREILSVDCSTNNPSQAKLRRELDESLQVAERLTRKYNELLKSYQWKMLNTSSLLEQLNEQFNWVSRLANLTQGEDQYYLRVTTVASHTSDSDVPSGVTEVVVKLFDSDPITVTVPVEVSRKNPKFMETVAEKALQEYRKKHREE	binds	binds	
B1			1 copies and 3 copies
